In experiment [1] the target is T1, TP53 R175H peptide on HLA-A*02:01 (human).
T1 peptide: HMTEVVRHC
The experiment can be described thus: multimer staining.

Experiment [2] addresses T2, TP53 wild-type peptide on HLA-A*02:01 (human).
T2 peptide: HMTEVVRRC
The experiment can be described thus: cytokine release.

B1: TCR 3C (TCR, V domains shown)
Valpha: GEDVEQSLFLSVREGDSSVINCTYTDSSSTYLYWYKQEPGAGLQLLTYIFSNMDMKQDQRLTVLLNKKDKHLSLRIADTQTGDSAIYFCAEGYGGKLIFGQGTELSVKP
Vbeta: GAGVSQTPSNKVTEKGKYVELRCDPISGHTALYWYRQSLGQGPEFLIYFQGTGAADDSGLPNDRFFAVRPEGSVSTLKIQRTERGDSAVYLCASSSKTGVVGEQFFGPGTRLTVL
Regarding B1, the figures for the binding result in experiment [1] and in experiment [2] were “recognises” and “no recognition”, respectively.

B2: TCR 3A (TCR, V domains shown)
Valpha: GEDVEQSLFLSVREGDSSVINCTYTDSSSTYLYWYKQEPGAGLQLLTYIFSNMDMKQDQRLTVLLNKKDKHLSLRIADTQTGDSAIYFCAEISANQAGTALIFGKGTTLSVSS
Vbeta: DTGVSQNPRHKITKRGQNVTFRCDPISEHNRLYWYRQTLGQGPEFLTYFQNEAQLEKSRLLSDRFSAERPKGSFSTLEIQRTEQGDSAMYLCASSPLDSYQETQYFGPGTRLLVL
For B2, the binding result was “recognises” in experiment [1] and “no recognition” in experiment [2].

B3: TCR 7B (TCR, V domains shown)
Valpha: DAKTTQPTSMDCAEGRAANLPCNHSTISGNEYVYWYRQIHSQGPQYIIHGLKNNETNEMASLIITEDRKSSTLILPHATLRDTAVYYCIVPRGFSNTGKLIFGQGTTLQVKP
Vbeta: GAVVSQHPSRVICKSGTSVKIECRSLDFQATTMFWYRQFPKQSLMLMATSNEGSKATYEQGVEKDKFLINHASLTLSTLTVTSAHPEDSSFYICSASESLALASEQYFGPGTRLTVT
In the case of B3, the values for the binding result in experiment [1] and in experiment [2] were “recognises” and “no recognition”, respectively.

B4: TCR 7A (TCR, V domains shown)
Valpha: AQKVTQAQTEISVVEKEDVTLDCVYETRDTTYYLFWYKQPPSGELVFLIRRNSFDEQNEISGRYSWNFQKSTSSFNFTITASQVVDSAVYFCALRNSGNTPLVFGKGTRLSVIA
Vbeta: DSGVTQTPKHLITATGQRVTLRCSPRSGDLSVYWYQQSLDQGLQFLIQYYNGEERAKGNILERFSAQQFPDLHSELNLSSLELGDSALYFCASSVDWVQETQYFGPGTRLLVL
In the case of B4, the binding result in experiment [1] is “recognises”; in experiment [2], “no recognition”.

B5: TCR 4A (TCR, V domains shown)
Valpha: AQTVTQSQPEMSVQEAETVTLSCTYDTSESNYYLFWYKQPPSRQMILVIRQEAYKQQNATENRFSVNFQKAAKSFSLKISDSQLGDTAMYFCAFMKWQGGSEKLVFGKGTKLTVNP
Vbeta: DTAVSQTPKYLVTQMGNDKSIKCEQNLGHDTMYWYKQDSKKFLKIMFSYNNKELIINETVPNRFSPKSPDKAHLNLHINSLELGDSAVYFCASSQALAGEVDTQYFGPGTRLTVL
For the molecule B5, the values for the binding result in experiment [1] and in experiment [2] were “recognises” and “no recognition”, respectively.

B6: TCR 3B (TCR, V domains shown)
Valpha: AQKITQTQPGMFVQEKEAVTLDCTYDTSDQSYGLFWYKQPSSGEMIFLIYQGSYDEQNATEGRYSLNFQKARKSANLVISASQLGDSAMYFCAMREGRGRRALTFGSGTRLQVQP
Vbeta: ETGVTQTPRHLVMGMTNKKSLKCEQHLGHNAMYWYKQSAKKPLELMFVYSLEERVENNSVPSRFSPECPNSSHLFLHLHTLQPEDSALYLCASSQDTAWDSGGETDTQYFGPGTRLTVL
For B6, the binding result in experiment [1] was “recognises”; in experiment [2] it was “no recognition”.

B7: TCR 1A (TCR, V domains shown)
Valpha: SQQGEEDPQALSIQEGENATMNCSYKTSINNLQWYRQNSGRGLVHLILIRSNEREKHSGRLRVTLDTSKKSSSLLITASRAADTASYFCATGSNYGGSQGNLIFGKGTKLSVKP
Vbeta: EAGVAQSPRYKIIEKRQSVAFWCNPISGHATLYWYQQILGQGPKLLIQFQNNGVVDDSQLPKDRFSAERLKGVDSTLKIQPAKLEDSAVYLCASSLDYGSSYEQYFGPGTRLTVT
Regarding B7, the binding result in experiment [1] was “recognises”; in experiment [2] it was “no recognition”.

B8: TCR 8A (TCR, V domains shown)
Valpha: AQSVAQPEDQVNVAEGNPLTVKCTYSVSGNPYLFWYVQYPNRGLQFLLKYITGDNLVKGSYGFEAEFNKSQTSFHLKKPSALVSDSALYFCAVRAPGNTPLVFGKGTRLSVIA
Vbeta: DTAVSQTPKYLVTQMGNDKSIKCEQNLGHDTMYWYKQDSKKFLKIMFSYNNKELIINETVPNRFSPKSPDKAHLNLHINSLELGDSAVYFCASSQDLGFDEKLFFGSGTQLSVL
Regarding B8, the binding result is “recognises” in experiment [1] and “no recognition” in experiment [2].

B9: TCR 1B (TCR, V domains shown)
Valpha: AQKITQTQPGMFVQEKEAVTLDCTYDTSDPSYGLFWYKQPSSGEMIFLIYQGSYDQQNATEGRYSLNFQKARKSANLVISASQLGDSAMYFCAMREGFSGGYNKLIFGAGTRLAVHP
Vbeta: DAGVTQSPTHLIKTRGQQVTLRCSPISGHKSVSWYQQVLGQGPQFIFQYYEKEERGRGNFPDRFSARQFPNYSSELNVNALLLGDSALYLCASSDDTGTTKSSGANVLTFGAGSRLTVL
For B9, the binding result in experiment [1] is listed as “recognises”; in experiment [2] it was “no recognition”.

B10: TCR 1C (TCR, V domains shown)
Valpha: DQQVKQNSPSLSVQEGRISILNCDYTNSMFDYFLWYKKYPAEGPTFLISISSIKDKNEDGRFTVFLNKSAKHLSLHIVPSQPGDSAVYFCAATVGLAGNMLTFGGGTRLMVKP
Vbeta: DSGVTQTPKHLITATGQRVTLRCSPRSGDLSVYWYQQSLDQGLQFLIQYYNGEERAKGNILERFSAQQFPDLHSELNLSSLELGDSALYFCASSTPLSGSSTDTQYFGPGTRLTVL
Regarding B10, the binding result is listed as “recognises” in experiment [1] and “no recognition” in experiment [2].

B11: TCR 7D (TCR, V domains shown)
Valpha: QKEVEQDPGPLSVPEGAIVSLNCTYSNSAFQYFMWYRQYSRKGPELLMYTYSSGNKEDGRFTAQVDKSSKYISLFIRDSQPSDSATYLCASSFSGYNKLIFGAGTRLAVHP
Vbeta: DSGVTQTPKHLITATGQRVTLRCSPRSGDLSVYWYQQSLDQGLQFLIQYYNGEERAKGNILERFSAQQFPDLHSELNLSSLELGDSALYFCASSERLAGAIADTQYFGPGTRLTVL
With B11, the binding result is given as “recognises” in experiment [1] and “no recognition” in experiment [2].

B12: TCR 1D (TCR, V domains shown)
Valpha: EDQVTQSPEALRLQEGESSSLNCSYTVSGLRGLFWYRQDPGKGPEFLFTLYSAGEEKEKERLKATLTKKESFLHITAPKPEDSATYLCAVHSNYQLIWGAGTKLIIKP
Vbeta: DSGVTQTPKHLITATGQRVTLRCSPRSGDLSVYWYQQSLDQGLQFLIHYYNGEERAKGNILERFSAQQFPDLHSELNLSSLELGDSALYFCASSTPLRTRGTDTQYFGPGTRLTVL
As for B12, the results for the binding result in experiment [1] and in experiment [2] were “recognises” and “no recognition”, respectively.

The values are drawn from patent US20260232801A1 (published 2026).
